Test results published in article PMC10528708.

Molecular target: T1, CHF-1Flu (tomato aspermy virus)
T1 chain: RKRHKLNR
Experiment: fluorescence polarization

For CTGCTGCTGCTGCTGCTGCTGCTGCTGCTG (structured_DNA) [d(CTG)10], the Kd was 440 ± 79 nM.
